First the molecules themselves.
B1: HSA50 (other)
VH: EVQLVESGGGLVQPGGSLRLSCAASGFTFSSYAMGWVRQAPGKGPEVVSLISGSGGSTWYDDSVKGRFTISRDNSKNTLYLQMNSLRAEDTAVYYCASHQFTTTQWGQGTLVTVSS
notes: Human VH domain antibody (single heavy chain variable domain)
B2: HSA11 (other)
VH: EVQLVESGGGLVQPGGSLRLSCAASGFTFSSYAMGWVRQAPGKGPEVVSLISGSGGSTWYDDSVKGRFTISRDNSKNTLYLQMNSLRAEDTAVYYCASHKFRNLKWGQGTLVTVSS
notes: as for B1
B3: HSA9 (other)
VH: EVQLVESGGGLVQPGGSLRLSCAASGFTFSSYAMGWVRQAPGKGPEVVSLISGSGGSTWYDDSVKGRFTISRDNSKNTLYLQMNSLRAEDTAVYYCASHQWSRQQWGQGTLVTVSS
notes: Human VH domain antibody (single heavy chain variable domain) selected from a CDR-engineered library; its FR2 matches the MG8-4 scaffold
B4: HER3#62 (other)
VH: EVQLVESGGGLVQPGGSLRLSCAASGFTFSSYAMGWVRQAPGKGPEVVSLISGSGGSTWYDDSVKGRFTISRDNSKNTLYLQMNSLRAEDTAVYYCASHPPRVDTWGQGTLVTVSS
notes: as for B1
B5: HER3#748 (other)
VH: EVQLVESGGGLVQPGGSLRLSCAASGFTFYSLMMGWVRQAPGKGPEVVSLISGSGGSTWYDDSVKGRFTISRDNSKNTLYLQMNSLRAEDTAVYYCASRHPPGLMWGQGTLVTVSS
notes: as for B1
B6: HER3#723 (other)
VH: EVQLVESGGGLVQPGGSLRLSCAASGFTFYNYPMGWVRQAPGKGPEVVSLISGSGGSTWYDDSVKGRFTISRDNSKNTLYLQMNSLRAENTAVYYCASHPVSLLFWGQGTLVTVSS
notes: Human VH domain antibody (single heavy chain variable domain), FR3 reads ...SLRAEN TAVYYC (N where the other clones have D)

The values below come from patent US20160003844A1 (MOGAM BIOTHECHNOLOGY INSTITUTE, published 2016).

T1 sequence (P02768 25-609 limits assumed): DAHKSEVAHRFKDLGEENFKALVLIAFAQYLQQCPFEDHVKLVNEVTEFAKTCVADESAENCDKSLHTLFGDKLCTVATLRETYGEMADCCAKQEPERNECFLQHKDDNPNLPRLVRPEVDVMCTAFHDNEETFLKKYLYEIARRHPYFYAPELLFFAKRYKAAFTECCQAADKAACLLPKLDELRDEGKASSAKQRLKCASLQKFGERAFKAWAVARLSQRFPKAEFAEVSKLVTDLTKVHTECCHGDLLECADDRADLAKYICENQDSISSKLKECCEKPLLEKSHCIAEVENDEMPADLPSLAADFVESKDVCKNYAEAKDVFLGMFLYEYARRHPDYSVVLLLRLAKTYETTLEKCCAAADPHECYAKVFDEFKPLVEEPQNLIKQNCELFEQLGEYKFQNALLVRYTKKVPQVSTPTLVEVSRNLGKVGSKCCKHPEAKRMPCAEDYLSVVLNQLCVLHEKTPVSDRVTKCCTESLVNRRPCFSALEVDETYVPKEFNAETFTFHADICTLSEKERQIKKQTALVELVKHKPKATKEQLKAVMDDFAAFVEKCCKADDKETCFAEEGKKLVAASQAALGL

The first assay has as its target T1, human serum albumin (human, UniProt P02768 25-609).
T1 construct: also called HAS; HSA
The assay is described as follows: method not stated; 'Affinity (nM)'.
On to B1, for which the Kd – broadly, the constant that tells how readily two partners part at equilibrium – worked out at 7.8 nM. Molecule B2 had a Kd of 1.2 nM. Still for that read-out and setting: with B3 the figure was 1.7 nM.

In a further assay the target is T2, Human Epidermal Growth Factor Receptor-3 (human, UniProt P21860 20-643, limits assumed).
T2 construct: also called HER3
T2 sequence (P21860 20-643 limits assumed): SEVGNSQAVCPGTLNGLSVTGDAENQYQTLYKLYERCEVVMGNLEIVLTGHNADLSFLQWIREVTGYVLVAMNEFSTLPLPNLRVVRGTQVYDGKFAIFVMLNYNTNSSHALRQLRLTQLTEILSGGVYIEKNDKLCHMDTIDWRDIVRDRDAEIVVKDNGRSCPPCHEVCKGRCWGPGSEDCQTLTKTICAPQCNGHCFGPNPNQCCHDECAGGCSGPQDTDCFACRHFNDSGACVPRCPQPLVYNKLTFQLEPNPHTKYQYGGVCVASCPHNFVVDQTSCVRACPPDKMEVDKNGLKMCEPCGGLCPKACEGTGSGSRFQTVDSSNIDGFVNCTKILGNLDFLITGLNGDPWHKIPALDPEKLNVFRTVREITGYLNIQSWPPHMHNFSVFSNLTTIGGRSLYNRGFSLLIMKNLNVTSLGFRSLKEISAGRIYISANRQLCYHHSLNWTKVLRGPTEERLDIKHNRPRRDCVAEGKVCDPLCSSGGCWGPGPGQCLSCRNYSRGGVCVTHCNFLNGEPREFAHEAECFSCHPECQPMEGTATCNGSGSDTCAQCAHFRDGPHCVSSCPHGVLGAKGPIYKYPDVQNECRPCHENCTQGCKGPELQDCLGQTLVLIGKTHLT
Kind of assay: method not stated; 'Affinity (nM)'.
B4 returned a Kd of 1.8 nM. On the same count and under the same terms, with B5 the figure was 20 nM.

B6: the affinity, expressed as Kd, was 27.4 nM.
